Square brackets hold non-standard residues; d marks the D form. Ends that are not written are not given here. * marks the point of attachment. Biotin = O=C1N[C@H]2[C@H](CS[C@H]2CCCCC(=O)*)N1; Oct = octanoic acid spacer; oct = octanoic acid spacer; StBu = CC(C)(C)S*

Assay [1] concerns the target AKT1 (Homo sapiens, UniProt P31749). The assay is described as follows: KD of synbody variants (Tables 2 and 4). Also noted: key to KD (nM): n.b. = no binding. The format is binding. The protocol:
Selection of screening of amino acid variants has been described above. Variants including modifications of conjugation chemistry, linker, spacers or adjunct moieties can be screened for retention of binding to AKT1. In some methods, either the AKT1 or the synbody is immobilized. Optionally binding of a variant is tested in competition with the lead AKT1 synbody discussed above. In one format, AKT1 is immobilized to a support and synbody variants are tested for binding by surface plasmon resonance.
The following synbodies have the same peptides as the lead synbody and are synthesized off of a lysine core but include the addition of different functional groups synthesized between the C-terminus of the peptide and the amine groups of the lysine scaffold (Table 2). Synbodies were conjugated with either a C-terminal cysteine protected against disulfide formation using a sulfo-tert-butyl group, or with different biotin-conjugated lysines where the spacer between the lysine and the backbone varied. For example, in synbody 5 the biotin was attached to the amino group of the side chain, synbody 6 used a caproic acid spacer, while synbody 7 used an eleven-unit polyethylene glycol spacer.
The following mutant forms of the lead peptide have been made in which either one or more amino acids are substituted or the orientation of the peptides on the linker is reversed (Table 4).

In assay [2] the target is AKT3 (Homo sapiens, UniProt Q9Y243). Briefly: Immunoprecipitation of purified AKT3 from cell lysate with synbody (Western blot). The format is binding. To be noted: immunoprecipitate of purified 250 ng AKT3 from 500 mg of cell lysate. The protocol: (§1) The synbody was tested for binding to AKT1 and in some experiments, AKT2 and AKT3.
AKT3 (Homo sapiens, UniProt Q9Y243), sequence (Q9Y243 whole entry): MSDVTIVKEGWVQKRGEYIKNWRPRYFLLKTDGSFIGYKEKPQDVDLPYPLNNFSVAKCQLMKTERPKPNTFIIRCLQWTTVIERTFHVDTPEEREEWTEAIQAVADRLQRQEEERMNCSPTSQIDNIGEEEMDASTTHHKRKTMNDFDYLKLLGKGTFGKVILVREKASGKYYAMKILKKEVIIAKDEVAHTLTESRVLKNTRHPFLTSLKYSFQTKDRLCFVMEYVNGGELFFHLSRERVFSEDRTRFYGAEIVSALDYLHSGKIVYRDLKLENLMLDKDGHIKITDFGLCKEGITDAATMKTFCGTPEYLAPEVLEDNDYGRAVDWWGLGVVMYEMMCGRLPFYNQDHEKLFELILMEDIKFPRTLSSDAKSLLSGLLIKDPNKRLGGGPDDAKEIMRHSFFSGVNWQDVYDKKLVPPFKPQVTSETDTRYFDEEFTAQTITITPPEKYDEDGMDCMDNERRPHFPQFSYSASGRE
For assay [3], the target named is AKT2 (Homo sapiens, UniProt P31751). The assay is described as follows: Immunoprecipitation of purified AKT2 from cell lysate with synbody (Western blot). Format: binding. The following applies: immunoprecipitate of purified 250 ng AKT2 from 500 mg of cell lysate. The protocol: as §1
AKT2 (Homo sapiens, UniProt P31751), sequence (P31751 whole entry): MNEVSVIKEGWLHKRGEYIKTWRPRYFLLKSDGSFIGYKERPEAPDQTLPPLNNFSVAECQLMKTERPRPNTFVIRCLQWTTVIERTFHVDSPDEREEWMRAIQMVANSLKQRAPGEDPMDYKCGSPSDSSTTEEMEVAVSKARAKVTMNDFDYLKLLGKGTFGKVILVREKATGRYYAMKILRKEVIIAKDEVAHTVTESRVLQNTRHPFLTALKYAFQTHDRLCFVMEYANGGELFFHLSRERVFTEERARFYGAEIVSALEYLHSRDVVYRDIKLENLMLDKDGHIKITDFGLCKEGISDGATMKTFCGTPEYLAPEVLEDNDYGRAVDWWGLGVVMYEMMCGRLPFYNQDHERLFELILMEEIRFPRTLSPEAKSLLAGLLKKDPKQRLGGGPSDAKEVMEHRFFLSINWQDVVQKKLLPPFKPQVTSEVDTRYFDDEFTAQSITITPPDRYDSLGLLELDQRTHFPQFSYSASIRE
For orientation: Immunoblotting shows a protein as a band on a membrane.

Assay [4] addresses T1, AKT1 (human, UniProt P31749 1-480).
T1 construct: also called human AKT1; AKT1_HUMAN
The assay is described as follows: method not stated (Table 2).

The target of assay [5] is T1, AKT1. The assay is described as follows: method not stated (Table 4).
Assay [6] deals with T1, AKT1. Briefly: pull-down of S35-labeled AKT1 with synbody immobilized via biotin on magnetic beads, 1:1 fit; pull-down of S35-labeled AKT1, synbody on magnetic bead via biotin. The protocol:
as §1

Assay [7] concerns the target T1, AKT1. The assay is described as follows: SPR, synbody at 12.5 and 6.25 nM injected over immobilized AKT1, 1:1 kinetic fit. On the procedure:
as §1

Assay [8] addresses AKT2 (human, UniProt P31751 1-481). The assay is described as follows: immunoprecipitation of 250 ng purified AKT2 from cell lysate with the synbody, Western blot. On the procedure: as §1
Assay [9] concerns the target T1, AKT1. Briefly: SPR, 12.5 and 6.25 nM synbody injected over AKT1 surface, 1:1 kinetic fit; SPR, synbody injected over AKT1 surface, 1:1 kinetic fit. On the procedure: as §1
For assay [10], the target named is AKT3 (human, UniProt Q9Y243 1-479, limits assumed). Briefly: immunoprecipitation of 250 ng purified AKT3 from cell lysate with the synbody, Western blot. The protocol: as §1
AKT3 (human, UniProt Q9Y243 1-479, limits assumed), sequence (Q9Y243 whole entry): as the sequence (Q9Y243 whole entry) above
Setting [11] is: Table 2, synbodies constructed from a lysine scaffold.

AKT1 (Homo sapiens, UniProt P31749), sequence (P31749 whole entry): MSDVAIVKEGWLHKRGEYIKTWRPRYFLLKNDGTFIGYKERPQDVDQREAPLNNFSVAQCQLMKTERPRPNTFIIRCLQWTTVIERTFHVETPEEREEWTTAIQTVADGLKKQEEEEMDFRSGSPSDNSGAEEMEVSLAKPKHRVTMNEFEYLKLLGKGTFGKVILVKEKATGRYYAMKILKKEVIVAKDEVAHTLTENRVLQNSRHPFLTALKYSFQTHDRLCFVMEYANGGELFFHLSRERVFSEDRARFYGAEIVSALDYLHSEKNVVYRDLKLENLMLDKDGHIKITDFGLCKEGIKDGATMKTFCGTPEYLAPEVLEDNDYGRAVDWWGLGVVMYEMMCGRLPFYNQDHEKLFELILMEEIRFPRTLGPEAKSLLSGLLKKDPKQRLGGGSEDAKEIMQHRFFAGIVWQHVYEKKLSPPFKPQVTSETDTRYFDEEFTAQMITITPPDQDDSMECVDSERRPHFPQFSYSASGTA
T1 sequence (P31749 whole entry): as above
AKT2 (human, UniProt P31751 1-481), sequence (P31751 whole entry): as the sequence (P31751 whole entry) above

For the molecule “AHKVVPQRQIRHAYNRYGSG(oct)KCFRGWAHIFFGPHVIYRGGSG(oct) (AHKVVPQRQIRHAYNRYGSG[oct]KCFRGWAHIFFGPHVIYRGGSG-oct; not fully specified; printed as AHKVVPQRQIRHAYNRYGSG(oct)KCFRGWAHIFFGPHVIYRGGSG(oct); numbers in words are those of the source; also: branched on Lys21 side chain (linear writing)) [Akt26-(Oct)-23(Oct)KC]”, the “KD (nM)” value with AKT1 [1] (setting [11]) is reported as “n.b”.
As usually defined, the Kd is the constant that tells how readily two partners part at equilibrium. For the molecule `CC[C@H](C)[C@H](NC(=O)[C@H](Cc1c[nH]cn1)NC(=O)[C@H](C)NC(=O)[C@H](Cc1c[nH]c2ccccc12)NC(=O)CNC(=O)[C@H](CCCNC(=N)N)NC(=O)[C@@H](N)Cc1ccccc1)C(=O)N[C@@H](Cc1ccccc1)C(=O)N[C@@H](Cc1ccccc1)C(=O)NCC(=O)N1CCC[C@H]1C(=O)N[C@@H](Cc1c[nH]cn1)C(=O)N[C@H](C(=O)N[C@H](C(=O)N[C@@H](Cc1ccc(O)cc1)C(=O)N[C@@H](CCCNC(=N)N)C(=O)NCC(=O)NCC(=O)N[C@@H](CO)C(=O)NCC(=O)NCCCC[C@H](NC(=O)CNC(=O)[C@H](CO)NC(=O)CNC(=O)[C@H](Cc1ccc(O)cc1)NC(=O)[C@H](CCCNC(=N)N)NC(=O)[C@H](CC(N)=O)NC(=O)[C@H](Cc1ccc(O)cc1)NC(=O)[C@H](C)NC(=O)[C@H](Cc1c[nH]cn1)NC(=O)[C@H](CCCNC(=N)N)NC(=O)[C@@H](NC(=O)[C@H](CCC(N)=O)NC(=O)[C@H](CCCNC(=N)N)NC(=O)[C@H](CCC(N)=O)NC(=O)[C@@H]1CCCN1C(=O)[C@@H](NC(=O)[C@@H](NC(=O)[C@H](CCCCN)NC(=O)[C@H](Cc1c[nH]cn1)NC(=O)[C@H](C)N)C(C)C)C(C)C)[C@@H](C)CC)C(=O)N[C@@H](CSSC(C)(C)C)C(N)=O)[C@@H](C)CC)C(C)C` [Akt26-23KC], the Kd at AKT1 [1] (setting [11]) was 4 nM.
Consider “AWKVVPQRQIRHAYNRYGSGKCFRGWAHIFFGPHVIYRGGSG [m3-Akt26-23 KC]”, for which, at AKT1 [1] (Table 4, synbodies constructed from mutant peptides on lysine scaffold), the “KD (nM)” value is “n.b”.
With `CC[C@H](C)[C@H](NC(=O)[C@H](Cc1c[nH]cn1)NC(=O)[C@H](C)NC(=O)[C@H](Cc1c[nH]c2ccccc12)NC(=O)CNC(=O)[C@H](CCCNC(=N)N)NC(=O)[C@@H](N)Cc1ccccc1)C(=O)N[C@@H](Cc1ccccc1)C(=O)N[C@@H](Cc1ccccc1)C(=O)NCC(=O)N1CCC[C@H]1C(=O)N[C@@H](Cc1c[nH]cn1)C(=O)N[C@H](C(=O)N[C@H](C(=O)N[C@@H](Cc1ccc(O)cc1)C(=O)N[C@@H](CCCNC(=N)N)C(=O)NCC(=O)NCC(=O)N[C@@H](CO)C(=O)NCC(=O)NCCCC[C@H](NC(=O)CNC(=O)[C@H](CO)NC(=O)CNC(=O)[C@H](Cc1ccc(O)cc1)NC(=O)[C@H](CCCNC(=N)N)NC(=O)[C@H](CC(N)=O)NC(=O)[C@H](Cc1ccc(O)cc1)NC(=O)[C@H](C)NC(=O)[C@H](Cc1c[nH]cn1)NC(=O)[C@H](CCCNC(=N)N)NC(=O)[C@@H](NC(=O)[C@H](CCC(N)=O)NC(=O)[C@H](CCCNC(=N)N)NC(=O)[C@H](CCC(N)=O)NC(=O)[C@@H]1CCCN1C(=O)[C@@H](NC(=O)[C@@H](NC(=O)[C@H](CCCCN)NC(=O)[C@H](Cc1c[nH]cn1)NC(=O)[C@H](C)N)C(C)C)C(C)C)[C@@H](C)CC)C(=O)N[C@@H](CCCCNC(=O)CCCC[C@@H]1SC[C@@H]2NC(=O)N[C@@H]21)C(N)=O)[C@@H](C)CC)C(C)C` [lead synbody], the “cross-reactivity with AKT3” value on AKT3 [2] was “little cross-reactivity”. Besides, on AKT2 [3], the “cross-reactivity with AKT2” value is listed as “little cross-reactivity”.
On to “AHKVVPQRQIRHAYNRYGSGKCFRGWAHIFFGPHVIYRGGSG(oct) (AHKVVPQRQIRHAYNRYGSGKCFRGWAHIFFGPHVIYRGGSG-oct; not fully specified; printed as AHKVVPQRQIRHAYNRYGSGKCFRGWAHIFFGPHVIYRGGSG(oct); also: branched on Lys21 side chain (linear writing)) [Akt26-23(Oct)KC]”, for which the “KD (nM)” value with AKT1 [1] (setting [11]) is reported as “n.b”.

B1: Akt26(Oct)-23KC (designed binder)
chain 1: AHKVVPQRQIRHAYNRYGSG[Oct]KC(StBu)
chain 2: FRGWAHIFFGPHVIYRGGSG
modifications: numbers in words are those of the source; also: bond at chain A 21 to a chain's C-terminus
notes: Branched molecule; They shift if the listing holds a placeholder for the spacer
In turn, B1 yielded a Kd with AKT1 [4] of 6 nM.

B2: Akt26-23(hex)KC (designed binder)
chain 1: AHKVVPQRQIRHAYNRYGSGKC(StBu)
chain 2: FRGWAHIFFGPHVIYRGGSG
modifications: not fully specified (C-terminus); also: linker at chain A 21 to a chain's C-terminus via hex
notes: Branched molecule
In the case of B2, binding with AKT1 [4] was put at a Kd of 3 nM.

B3: Akt26-23KKbiotin (designed binder)
chain 1: AHKVVPQRQIRHAYNRYGSGKK(Biotin)
chain 2: FRGWAHIFFGPHVIYRGGSG
modifications: also: bond at chain A 21 to a chain's C-terminus
notes: I split it into two chains; The name runs over rows r11 and r12; also called synbody 5
In turn, B3 had a Kd with AKT1 [4] of 4 nM.

B4: m1-Akt26-23 KC (designed binder)
chain 1: AHKVVPQRQMRHAYSRYGSGKC
chain 2: FRGWAHIFFGPHVIYRGGSG
modifications: also: bond at chain A 21 to a chain's C-terminus
notes: Mutant peptide on a lysine scaffold
In the assay with AKT1 [5], B4 gave an equilibrium dissociation constant (Kd) of 15 nM.

B5: m2-Akt26-23 KC (designed binder)
chain 1: AHKVVYQRQIRFAYNRYGSGKC
chain 2: FRGWAHIFFGPHVIYRGGSG
modifications: also: bond at chain A 21 to a chain's C-terminus
notes: Mutant peptide on a lysine scaffold; Branched molecule, which I split into two chains
As to B5, in the assay with AKT1 [5], the affinity, expressed as Kd, was 5 nM.

B6: m6-Akt26-23 KC (designed binder)
chain 1: AWKVVPQRWIRYAYNRYGSGKC
chain 2: FRGWAHIFFGPHVIYRGGSG
modifications: also: bond at chain A 21 to a chain's C-terminus
notes: as for B5
B6 showed a Kd with AKT1 [5] of about 10 nM.

B7: m4-Akt26-23 KC (designed binder)
chain 1: AHKVVPQRWIRHAYNRYGSGKC
chain 2: FRGWAHIFFGPHVIYRGGSG
modifications: also: bond at chain A 21 to a chain's C-terminus
notes: as for B5
In the assay with AKT1 [5], B7 returned an equilibrium dissociation constant (Kd) of 5 nM.

B8: m5-Akt26-23 KC (designed binder)
chain 1: AWKVVPQRWIRHAYNRYGSGKC
chain 2: FRGWAHIFFGPHVIYRGGSG
modifications: also: bond at chain A 21 to a chain's C-terminus
notes: as for B5
The molecule B8 had a Kd with AKT1 [5] of 8 nM.

B9: lead synbody (Akt26 and Akt23 on a lysine linker, second lysine with biotin) (designed binder)
chain 1: AHKVVPQRQIRHAYNRYGSGKK
chain 2: FRGWAHIFFGPHVIYRGGSG
modifications: not fully specified (some residues); also: bond at chain A 21 to a chain's C-terminus
notes: also called the synbody; first generation synbody
For orientation: koff means a measure of how fast the partners let go of each other. B9: the Kd with AKT1 [6] turned out to be 4.9 nM; in the assay with AKT1 [9], 1.49 nM. The molecule further showed a dissociation rate constant (koff) with AKT1 [7] of 0.000295 s⁻¹. In addition, the binding result in the assay with AKT2 [8] and with AKT3 [10] was “binds” in each case.

For the origin of these results see US20120220540A1, “SYNBODIES TO AKT1” (ARIZONA BOARD OF REGENTS FOR AND ON BEHALF OF ARIZONA STATE …, priority 2009, published 2012).
